Experimental data: the supplement of paper PMC9170038

System: MS2 coat protein
Assay: apparent KD of MS2 coat protein; designed switch direction (-1 OFF switch, 1 ON switch): -1; higher = weaker reporter binding
Summary of the method: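 SNAP-549-labelled MS2 coat protein was titrated, doubling from 0.7 or 1.5 nM to 3 µM, over designed RNA switches transcribed on Illumina chips by stalled E. coli RNA polymerase. Runs were done without input, with 200 uM small-molecule ligand, or with an oligonucleotide input. Apparent KD is the per-design median over clusters of curve-fitted normalised fluorescence.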

[1] = input ligand: microRNA oligo, concentration not stated
[2] = Eterna round: R95, input ligand: FMN 200 uM
[3] = Eterna round: R95, input ligand: microRNA oligo, concentration not stated
[4] = Eterna round: R95, input ligand: none

Row | Sequence | apparent KD of MS2 coat protein (input ligand: FMN 200 uM) | apparent KD of MS2 coat protein [1] | apparent KD of MS2 coat protein (input ligand: none) | apparent KD of MS2 coat protein [2] | apparent KD of MS2 coat protein [3] | apparent KD of MS2 coat protein [4]
1 | AGUACUAACACGGGAGUGUUAGUACAAUAAGCUUGUGAAACAUGAGGAUCACCCAUGUCCUCAUAAGCUCGUCUUAU [salish99_TOv2_r3_060] (Eterna round: R96, puzzle: Sensor v3, turn-off variant 2) | 14.5 nM | 436 nM | 17.4 nM |  |  | 
2 | AGUACUAACACGGGAGUGUUAGUACAAUAAGCUUGUGAAACAUGAGGAUCACCCAUGUCCUCAUAAGCUCGUCUUAU [salish99_TOv2_r3_060] (puzzle: Sensor v3, turn-off variant 2) |  |  |  | 16.6 nM | 717 nM | 13.8 nM
3 | AGUACUAACACGUAAGUGUUAGUACAAUAAGCUUGUGUUACAUGAGGAUCACCCAUGUCCUCAUAAGCUCGUCUUAU [Mat - Sensor v3 - Turn-off var 2 - D60] (puzzle: Sensor v3, turn-off variant 2) |  |  |  | 134 nM | 77.6 nM | 150 nM
4 | AGUACUAACACGUUUGUGUUAGUACAAUAAGCUUGUGAAACAUGAGGAUCACCCAUGUCCUCAUAAGCUCGUCUUAU [salish99_TOv2_r3_069] (puzzle: Sensor v3, turn-off variant 2) |  |  |  | 17.4 nM | 567 nM | 16.3 nM
5 | AGUACUAACGCGAAAGUGUUAGUACAAUAAGCUUGUGAAACAUGAGGAUCACCCAUGUCCUCAUAAGCUCGUCUUAU [salish99_TOv2_r3_023] (puzzle: Sensor v3, turn-off variant 2) |  |  |  | 19 nM | 549 nM | 16.1 nM
6 | AGUACUAACUCGAAAGUGUUAGUACAAUAAGCUUGUGAAACAUGAGGAUCACCCAUGUCCUCAUAAGCUCGUCUUAU [salish99_TOv2_r3_022] (Eterna round: R96, puzzle: Sensor v3, turn-off variant 2) | 16 nM | 430 nM | 18 nM |  |  | 
7 | AGUACUAACUCGAAAGUGUUAGUACAAUAAGCUUGUGAAACAUGAGGAUCACCCAUGUCCUCAUAAGCUCGUCUUAU [salish99_TOv2_r3_022] (puzzle: Sensor v3, turn-off variant 2) |  |  |  | 15.7 nM | 739 nM | 15.3 nM
8 | AGUACUAUCACGAAAGUGAUAGUACAAAAAGCAAGUGAAACAUGAGGAUCACCCAUGUCCUCAUUUGCUCGUCUUAU [Identical to 94% Sensor v2, turnoff variant 2] (puzzle: Sensor v3, turn-off variant 2) |  |  |  | 16.8 nM | 476 nM | 12.7 nM
9 | AGUACUAUCACGAAAGUGAUAGUACAAAAAGCAAGUGAAACAUGAGGAUCACCCAUGUCCUCAUUUGCUCGUCUUAU [JL turnoff v2 99] (Eterna round: R96, puzzle: Sensor v2, turn-off variant 2) | 12.2 nM | 375 nM | 14.4 nM |  |  | 
10 | AGUACUAUCACGAAAGUGAUAGUACAAAGAGCAAGUGGAACAUGAGGAUCACCCAUGUCCUCAUAUGCUCGUCUUAU [salish99-s2-v2-x003] (Eterna round: R96, puzzle: Sensor v2, turn-off variant 2) | 14.6 nM | 322 nM | 16.1 nM |  |  | 
11 | AGUACUAUCACGAAAGUGAUAGUACAAUAAACAAGUGAAACAUGAGGAUCACCCAUGUCCUCAUUUGCUCGUCUUAU [Sensor 3 - 1] (puzzle: Sensor v3, turn-off variant 2) |  |  |  | 146 nM | 389 nM | 183 nM
12 | AGUACUAUCACGAAAGUGAUAGUACAAUAAGCUAGUGAAACAUGAGGAUCACCCAUGUCCUCAUUAGCUCGUCUUAU [JL turnoff v2 78] (Eterna round: R96, puzzle: Sensor v2, turn-off variant 2) | 14 nM | 258 nM | 16.4 nM |  |  | 
13 | AGUACUAUCACGAAAGUGAUAGUACAAUAAGCUUGUGAAACAUGAGGAUCACCCAUGUCCUCAUAAGCUCGUCUUAU [JL turnoff v2 77] (Eterna round: R96, puzzle: Sensor v2, turn-off variant 2) | 16.1 nM | 463 nM | 18.7 nM |  |  | 
14 | AGUACUAUCACGAAAGUGAUAGUACAAUGAGCUUUUGAAACAUGAGGAUCACCCAUGUCCUCAUAAGCUCGUCUUAU [JL turnoff v2 52] (Eterna round: R96, puzzle: Sensor v2, turn-off variant 2) | 17.4 nM | 123 nM | 18.9 nM |  |  | 
15 | AGUACUAUCACGAAAGUGAUAGUACAAUUGAGCUUUUGAACAUGAGGAUCACCCAUGUCCUCAUAAGCUCGUCUUAA [Mat - Sensor v2 - var 2 - Mod - D171] (Eterna round: R96, puzzle: Sensor v2, turn-off variant 2) | 28.7 nM | 496 nM | 30.5 nM |  |  | 
16 | AGUACUGACACGUCGGUGUUAGUACAAUAAGCUUGUGAAACAUGAGGAUCACCCAUGUCCUCAUAAGCUCGUCUUAU [salish99_TOv2_r3_081] (Eterna round: R96, puzzle: Sensor v3, turn-off variant 2) | 15.1 nM | 481 nM | 17.2 nM |  |  | 
17 | AGUACUGACACGUCGGUGUUAGUACAAUAAGCUUGUGAAACAUGAGGAUCACCCAUGUCCUCAUAAGCUCGUCUUAU [salish99_TOv2_r3_081] (puzzle: Sensor v3, turn-off variant 2) |  |  |  | 17 nM | 659 nM | 15 nM
18 | AGUACUGACACGUUGGUGUUAGUACAAUAAGCUUGUGAUACAUGAGGAUCACCCAUGUCCUCAUAAGCUCGUCUUAU [salish99_TOv2_r2_093] (puzzle: Sensor v3, turn-off variant 2) |  |  |  | 26.1 nM | 881 nM | 21.1 nM
19 | AGUACUGACACGUUGGUGUUAGUACAAUAAGCUUGUGUUACAUGAGGAUCACCCAUGUCCUCAUAAGCUCGUCUUAU [salish99_TOv2_r2_095] (puzzle: Sensor v3, turn-off variant 2) |  |  |  | 117 nM | 38.4 nM | 138 nM
20 | AGUACUUACACGAAAGUGUUAGUACAAUAAGCUUGUGAAACAUGAGGAUCACCCAUGUCCUCAUAAGCUCGUCUUAU [salish99_TOv2_r3_016] (puzzle: Sensor v3, turn-off variant 2) |  |  |  | 18.6 nM | 615 nM | 17.1 nM
21 | AGUAGAUCUACGCUUGCGUGGAUCUGCAAUGCAAGUGUAACAUGAGGAUCACCCAUGUCCUCAUUUGCUCGUCUUAU [JL turnoff v2 99.03] (puzzle: Sensor v3, turn-off variant 2) |  |  |  | 46.8 nM | 275 nM | 48.8 nM
22 | AGUAGAUCUACGCUUGCGUGGAUCUGCAAUGCAGGUGUUACAUGAGGAUCACCCAUGUCCUCAUUUGCUCGUCUUAG [JL turnoff v2 99.06] (puzzle: Sensor v3, turn-off variant 2) |  |  |  | 97.4 nM | 663 nM | 91.9 nM
